# According to paper PMC9482650, “Quantitative fragmentomics allow affinity mapping of interactomes” (Nature Communications, 2022):
# T1: SHROOM4, Q9ULL8
# T1 sequence (Q9ULL8 5-102, limits assumed, looked up): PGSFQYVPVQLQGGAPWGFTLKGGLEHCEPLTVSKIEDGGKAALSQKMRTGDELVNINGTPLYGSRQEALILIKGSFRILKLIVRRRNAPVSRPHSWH
# T2: PDZRN3_2, Q9UPQ7
# T2 sequence (Q9UPQ7 414-513, limits assumed, looked up): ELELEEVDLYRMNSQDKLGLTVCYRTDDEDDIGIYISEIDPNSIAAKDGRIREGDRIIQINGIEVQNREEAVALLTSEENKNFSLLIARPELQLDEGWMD
# T3: PDZD2_1, O15018
# T3 sequence (O15018 80-192, limits assumed, looked up): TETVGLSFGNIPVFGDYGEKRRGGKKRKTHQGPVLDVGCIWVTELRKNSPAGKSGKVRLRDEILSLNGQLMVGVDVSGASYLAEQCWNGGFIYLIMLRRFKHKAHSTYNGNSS
# T4: TJP3_1, O95049
# T4 sequence (O95049 6-103, limits assumed, looked up): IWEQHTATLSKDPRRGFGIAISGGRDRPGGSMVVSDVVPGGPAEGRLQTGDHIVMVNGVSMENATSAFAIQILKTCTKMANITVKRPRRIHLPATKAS
# T5: GRIP1_2, Q9Y3R0
# T5 sequence (Q9Y3R0 145-248, limits assumed, looked up): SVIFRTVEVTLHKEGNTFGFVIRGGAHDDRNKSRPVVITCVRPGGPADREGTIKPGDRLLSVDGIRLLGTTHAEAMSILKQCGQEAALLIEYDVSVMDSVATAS
# T6: NHERF3_2, Q5T2W1
# T6 sequence (Q5T2W1 129-225, limits assumed, looked up): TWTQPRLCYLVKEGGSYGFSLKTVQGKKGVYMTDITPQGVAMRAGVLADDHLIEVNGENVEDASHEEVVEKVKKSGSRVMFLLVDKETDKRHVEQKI
# T7: PDZD2_5, O15018
# T7 sequence (O15018 2617-2716, limits assumed, looked up): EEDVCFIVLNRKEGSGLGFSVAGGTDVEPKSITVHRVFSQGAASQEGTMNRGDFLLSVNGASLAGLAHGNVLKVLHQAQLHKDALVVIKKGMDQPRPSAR
# T8: USH1C_1, Q9Y6N9
# T8 sequence (Q9Y6N9 82-179, limits assumed, looked up): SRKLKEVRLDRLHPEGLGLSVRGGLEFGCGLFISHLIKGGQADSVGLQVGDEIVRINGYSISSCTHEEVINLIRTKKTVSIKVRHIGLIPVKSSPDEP
# T9: USH1C_3, Q9Y6N9
# T9 sequence (Q9Y6N9 447-547, limits assumed, looked up): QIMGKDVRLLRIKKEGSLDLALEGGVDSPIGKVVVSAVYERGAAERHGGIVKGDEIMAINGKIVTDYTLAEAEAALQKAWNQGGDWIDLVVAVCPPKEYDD
# T10: SHANK3, Q9BYB0
# T10 sequence (Q9BYB0 641-750, limits assumed, looked up): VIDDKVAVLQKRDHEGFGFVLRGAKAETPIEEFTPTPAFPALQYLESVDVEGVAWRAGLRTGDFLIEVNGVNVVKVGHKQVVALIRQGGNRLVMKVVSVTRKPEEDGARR
# T11: MPDZ_2, O75970
# T11 sequence (O75970 252-347, limits assumed, looked up): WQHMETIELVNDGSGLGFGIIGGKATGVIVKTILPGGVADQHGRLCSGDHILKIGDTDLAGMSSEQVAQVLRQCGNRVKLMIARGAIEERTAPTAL
# B1: NET1, Q7Z628 (peptide)
# chain: SGGKRKETLV
# B2: DGKI, O75912 (peptide)
# chain: IGHEDLETAV
# B3: DCHS2, Q6V1P9 (peptide)
# chain: ELKAEDEVQI
# B4: CBY2, Q8NA61 (peptide)
# chain: SQDPKKPSRV
# B5: U2AF2, P26368 (peptide)
# chain: PDSYHRRDFW
# B6: SLC1A3, P43003 (peptide)
# chain: EKPIDSETKM
# B7: FMNL3, Q8IVF7 (peptide)
# chain: DAAHHDESNC
# B8: KCNA4, P22459 (peptide)
# chain: SNAKAVETDV
# B9: USH1C, Q9Y6N9 (peptide)
# chain: KEYDDELTFF
# B10: DLL1, O00548 (peptide)
# chain: KDECVIATEV
# B11: CNTNAP4, Q9C0A0 (peptide)
# chain: VNENQKEYFF
# B12: SHKBP1, Q8TBC3 (peptide)
# chain: PKMKLNETSF
# B13: RAPGEF6, Q8TEU7 (peptide)
# chain: ADENEQVSAV
# B14: ARVCF, O00192 (peptide)
# chain: AKPQPVDSWV
# B15: NHERF1, O14745 (peptide)
# chain: SKKNELFSNL
# B16: MTMR1, Q13613 (peptide)
# chain: HSATSVHTSV
# B17: PDZRN3, Q9UPQ7 (peptide)
# chain: YNSFLSVTTV
# B18: PDLIM2, Q96JY6 (peptide)
# chain: SAPATLSSRA
# B19: ARHGEF26, Q96DR7 (peptide)
# chain: GRLLGLETNV
# B20: KCNJ12, Q14500 (peptide)
# chain: QRPYRRESEI
# B21: ARHGAP6, O43182 (peptide)
# chain: NPDALPETLV
# B22: GDA, Q9Y2T3 (peptide)
# chain: KQVVPFSSSV
# B23: GPR6, P46095 (peptide)
# chain: PFRSRSPSEV
# B24: PODXL, O00592 (peptide)
# chain: DLDEEEDTHL
# B25: FAT3, Q8TDW7 (peptide)
# chain: FVETQHQTQV
# B26: MAPK12, P53778 (peptide)
# chain: GARVSKETPL
# Target: T1, SHROOM4, Q9ULL8
# Experiment: holdup assay
# Design: key: below the threshold = too weak to quantify, mostly under pKd 3.1 to 4
# Conditions: plain residues with an end cap or a label only (N-terminal biotin on a linker: ttds)
row,pKd,Binder
1,below the threshold,B1

# Target: NHERF4_3, Q86UT5
# Experiment: holdup assay
# Design: key: below the threshold = too weak to quantify, mostly under pKd 3.1 to 4
# Conditions: plain residues with an end cap or a label only (N-terminal biotin on a linker: ttds)
# NHERF4_3, Q86UT5, sequence (Q86UT5 325-412): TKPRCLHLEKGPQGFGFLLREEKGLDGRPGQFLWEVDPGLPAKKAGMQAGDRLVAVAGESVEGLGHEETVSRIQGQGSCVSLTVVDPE
row,pKd,Binder
1,below the threshold,B1

# Target: T2, PDZRN3_2, Q9UPQ7
# Experiment: holdup assay
# Design: key: below the threshold = too weak to quantify, mostly under pKd 3.1 to 4
# Conditions: plain residues with an end cap or a label only (N-terminal biotin on a linker: ttds)
row,pKd,Binder
1,below the threshold,B1

# Target: IL16_2, Q14005
# Experiment: holdup assay
# Design: key: below the threshold = too weak to quantify, mostly under pKd 3.1 to 4
# Conditions: plain residues with an end cap or a label only (N-terminal biotin on a linker: ttds)
# IL16_2, Q14005, sequence (Q14005 350-450): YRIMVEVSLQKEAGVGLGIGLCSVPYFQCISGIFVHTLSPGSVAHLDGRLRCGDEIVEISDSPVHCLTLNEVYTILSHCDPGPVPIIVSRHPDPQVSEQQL
row,pKd,Binder
1,below the threshold,B1

# Target: T3, PDZD2_1, O15018
# Experiment: holdup assay
# Design: key: below the threshold = too weak to quantify, mostly under pKd 3.1 to 4
# Conditions: plain residues with an end cap or a label only (N-terminal biotin on a linker: ttds)
row,pKd,Binder
1,below the threshold,B1

# Target: T4, TJP3_1, O95049
# Experiment: holdup assay
# Design: key: below the threshold = too weak to quantify, mostly under pKd 3.1 to 4
# Conditions: plain residues with an end cap or a label only (N-terminal biotin on a linker: ttds)
row,pKd,Binder
1,below the threshold,B1

# Target: FRMPD4, Q14CM0
# Experiment: holdup assay
# Design: key: below the threshold = too weak to quantify, mostly under pKd 3.1 to 4
# Conditions: plain residues with an end cap or a label only (N-terminal biotin on a linker: ado-ado)
# FRMPD4, Q14CM0, sequence (Q14CM0 67-160): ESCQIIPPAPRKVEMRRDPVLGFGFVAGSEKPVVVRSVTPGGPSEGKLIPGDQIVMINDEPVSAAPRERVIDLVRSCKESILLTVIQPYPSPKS
row,pKd,Binder
1,3.9,B2
2,below the threshold,B3
3,below the threshold,B4
4,3.71,B5
5,below the threshold,B6
6,below the threshold,B7

# Same assay, conditions: plain residues with an end cap or a label only (N-terminal biotin on a linker: ado-ado, ttds)
row,pKd,Binder
1,below the threshold,B8

# Same assay, conditions: plain residues with an end cap or a label only (N-terminal biotin on a linker: ahx)
row,pKd,Binder
1,4.42,B9
2,below the threshold,B10
3,4.65,B11
4,below the threshold,B12
5,below the threshold,B13
6,below the threshold,B14
7,below the threshold,B15
8,below the threshold,B16
9,below the threshold,B17
10,below the threshold,B18

# Same assay, conditions: plain residues with an end cap or a label only (N-terminal biotin on a linker: ttds)
row,pKd,Binder
1,below the threshold,B19
2,3.65,B1
3,below the threshold,B20
4,below the threshold,B21
5,below the threshold,B22
6,below the threshold,B23
7,4.7,B24
8,below the threshold,B25
9,4.1,B26

# Target: MAGI1_3, Q96QZ7
# Experiment: holdup assay
# Design: key: below the threshold = too weak to quantify, mostly under pKd 3.1 to 4
# Conditions: plain residues with an end cap or a label only (N-terminal biotin on a linker: ttds)
# MAGI1_3, Q96QZ7, sequence (Q96QZ7 638-725): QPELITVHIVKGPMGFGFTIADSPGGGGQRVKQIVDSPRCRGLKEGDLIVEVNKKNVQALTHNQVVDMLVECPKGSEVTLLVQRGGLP
row,pKd,Binder
1,4.91,B1

# Target: T5, GRIP1_2, Q9Y3R0
# Experiment: holdup assay
# Design: key: below the threshold = too weak to quantify, mostly under pKd 3.1 to 4
# Conditions: plain residues with an end cap or a label only (N-terminal biotin on a linker: ado-ado)
row,pKd,Binder
1,below the threshold,B2
2,below the threshold,B3
3,below the threshold,B4
4,below the threshold,B5
5,below the threshold,B6
6,below the threshold,B7

# Same assay, conditions: plain residues with an end cap or a label only (N-terminal biotin on a linker: ado-ado, ttds)
row,pKd,Binder
1,below the threshold,B8

# Same assay, conditions: plain residues with an end cap or a label only (N-terminal biotin on a linker: ahx)
row,pKd,Binder
1,below the threshold,B9
2,below the threshold,B10
3,below the threshold,B11
4,below the threshold,B12
5,below the threshold,B13
6,below the threshold,B14
7,below the threshold,B15
8,below the threshold,B16
9,below the threshold,B17
10,below the threshold,B18

# Same assay, conditions: plain residues with an end cap or a label only (N-terminal biotin on a linker: ttds)
row,pKd,Binder
1,below the threshold,B19
2,below the threshold,B1
3,below the threshold,B20
4,below the threshold,B21
5,below the threshold,B22
6,3.52,B23
7,3.63,B24
8,3.51,B25
9,below the threshold,B26

# Target: SCRIB_4, Q14160
# Experiment: holdup assay
# Design: key: below the threshold = too weak to quantify, mostly under pKd 3.1 to 4
# Conditions: plain residues with an end cap or a label only (N-terminal biotin on a linker: ttds)
# SCRIB_4, Q14160, sequence (Q14160 1095-1204): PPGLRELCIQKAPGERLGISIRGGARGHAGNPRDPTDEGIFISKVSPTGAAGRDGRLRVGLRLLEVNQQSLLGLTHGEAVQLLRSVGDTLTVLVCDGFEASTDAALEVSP
row,pKd,Binder
1,below the threshold,B1

# Target: T6, NHERF3_2, Q5T2W1
# Experiment: holdup assay
# Design: key: below the threshold = too weak to quantify, mostly under pKd 3.1 to 4
# Conditions: plain residues with an end cap or a label only (N-terminal biotin on a linker: ttds)
row,pKd,Binder
1,below the threshold,B1

# Target: T7, PDZD2_5, O15018
# Experiment: holdup assay
# Design: key: below the threshold = too weak to quantify, mostly under pKd 3.1 to 4
# Conditions: plain residues with an end cap or a label only (N-terminal biotin on a linker: ttds)
row,pKd,Binder
1,below the threshold,B1

# Target: SCRIB_3, Q14160
# Experiment: holdup assay
# Design: key: below the threshold = too weak to quantify, mostly under pKd 3.1 to 4
# Conditions: plain residues with an end cap or a label only (N-terminal biotin on a linker: ado-ado)
# SCRIB_3, Q14160, sequence (Q14160 999-1103): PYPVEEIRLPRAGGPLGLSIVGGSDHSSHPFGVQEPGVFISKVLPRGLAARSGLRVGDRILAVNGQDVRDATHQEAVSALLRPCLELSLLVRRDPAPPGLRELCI
row,pKd,Binder
1,4.91,B2
2,below the threshold,B3
3,below the threshold,B4
4,below the threshold,B5
5,3.58,B6
6,below the threshold,B7

# Same assay, conditions: plain residues with an end cap or a label only (N-terminal biotin on a linker: ado-ado, ttds)
row,pKd,Binder
1,4.8,B8

# Same assay, conditions: plain residues with an end cap or a label only (N-terminal biotin on a linker: ahx)
row,pKd,Binder
1,3.61,B9
2,4.11,B10
3,3.7,B11
4,4.49,B12
5,below the threshold,B13
6,3.95,B14
7,below the threshold,B15
8,3.74,B16
9,3.64,B17
10,below the threshold,B18

# Same assay, conditions: plain residues with an end cap or a label only (N-terminal biotin on a linker: ttds)
row,pKd,Binder
1,4.67,B19
2,4.31,B1
3,4.76,B20
4,3.99,B21
5,3.93,B22
6,3.49,B23
7,below the threshold,B24
8,4.02,B25
9,5.07,B26

# Target: T8, USH1C_1, Q9Y6N9
# Experiment: holdup assay
# Design: key: below the threshold = too weak to quantify, mostly under pKd 3.1 to 4
# Conditions: plain residues with an end cap or a label only (N-terminal biotin on a linker: ttds)
row,pKd,Binder
1,below the threshold,B1

# Target: T9, USH1C_3, Q9Y6N9
# Experiment: holdup assay
# Design: key: below the threshold = too weak to quantify, mostly under pKd 3.1 to 4
# Conditions: plain residues with an end cap or a label only (N-terminal biotin on a linker: ttds)
row,pKd,Binder
1,below the threshold,B1

# Target: T10, SHANK3, Q9BYB0
# Experiment: holdup assay
# Design: key: below the threshold = too weak to quantify, mostly under pKd 3.1 to 4
# Conditions: plain residues with an end cap or a label only (N-terminal biotin on a linker: ttds)
row,pKd,Binder
1,below the threshold,B1

# Target: T11, MPDZ_2, O75970
# Experiment: holdup assay
# Design: key: below the threshold = too weak to quantify, mostly under pKd 3.1 to 4
# Conditions: plain residues with an end cap or a label only (N-terminal biotin on a linker: ttds)
row,pKd,Binder
1,3.75,B1

# Target: MAGI1_5, Q96QZ7
# Experiment: holdup assay
# Design: key: below the threshold = too weak to quantify, mostly under pKd 3.1 to 4
# Conditions: plain residues with an end cap or a label only (N-terminal biotin on a linker: ttds)
# MAGI1_5, Q96QZ7, sequence (Q96QZ7 986-1098): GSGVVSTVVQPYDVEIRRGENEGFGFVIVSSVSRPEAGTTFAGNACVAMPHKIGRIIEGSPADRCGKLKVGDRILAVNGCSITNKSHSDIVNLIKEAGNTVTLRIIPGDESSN
row,pKd,Binder
1,4.72,B1
